What all share (test): SPR, mAb captured, C2 mutant analyte;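 also: Anti-C2 mAbs captured on goat anti-human IgG Biacore CM5 chips, alanine or serine C2 surface mutants flowed over at 37 °C, double-referenced sensorgrams fitted to a 1:1 binding model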
For orientation: Surface plasmon resonance follows binding to a sensor surface in real time, without labels.

For one assay, the target named is T1, human C2 V448A (human, UniProt P06681 21-752).
T1 sequence: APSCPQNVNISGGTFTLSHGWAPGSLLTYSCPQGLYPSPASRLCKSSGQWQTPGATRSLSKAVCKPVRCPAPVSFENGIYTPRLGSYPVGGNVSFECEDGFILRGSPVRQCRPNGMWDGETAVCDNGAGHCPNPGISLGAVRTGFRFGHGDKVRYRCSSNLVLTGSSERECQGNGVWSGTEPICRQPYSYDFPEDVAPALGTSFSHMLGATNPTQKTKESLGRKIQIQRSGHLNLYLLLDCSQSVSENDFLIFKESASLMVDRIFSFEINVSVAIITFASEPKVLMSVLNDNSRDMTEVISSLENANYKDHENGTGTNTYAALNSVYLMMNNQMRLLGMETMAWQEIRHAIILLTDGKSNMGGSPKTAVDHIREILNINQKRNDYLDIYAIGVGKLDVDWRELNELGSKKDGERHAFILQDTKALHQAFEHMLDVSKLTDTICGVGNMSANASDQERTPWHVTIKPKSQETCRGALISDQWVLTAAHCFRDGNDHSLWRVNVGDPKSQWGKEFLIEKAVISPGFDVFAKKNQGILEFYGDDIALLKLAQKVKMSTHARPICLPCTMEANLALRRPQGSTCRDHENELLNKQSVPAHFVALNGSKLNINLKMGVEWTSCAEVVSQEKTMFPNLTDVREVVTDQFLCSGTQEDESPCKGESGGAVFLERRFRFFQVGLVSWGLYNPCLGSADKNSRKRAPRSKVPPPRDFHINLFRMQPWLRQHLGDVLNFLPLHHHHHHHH

For another assay, the target named is T2, human C2 R434A (human, UniProt P06681 21-752).
T2 sequence: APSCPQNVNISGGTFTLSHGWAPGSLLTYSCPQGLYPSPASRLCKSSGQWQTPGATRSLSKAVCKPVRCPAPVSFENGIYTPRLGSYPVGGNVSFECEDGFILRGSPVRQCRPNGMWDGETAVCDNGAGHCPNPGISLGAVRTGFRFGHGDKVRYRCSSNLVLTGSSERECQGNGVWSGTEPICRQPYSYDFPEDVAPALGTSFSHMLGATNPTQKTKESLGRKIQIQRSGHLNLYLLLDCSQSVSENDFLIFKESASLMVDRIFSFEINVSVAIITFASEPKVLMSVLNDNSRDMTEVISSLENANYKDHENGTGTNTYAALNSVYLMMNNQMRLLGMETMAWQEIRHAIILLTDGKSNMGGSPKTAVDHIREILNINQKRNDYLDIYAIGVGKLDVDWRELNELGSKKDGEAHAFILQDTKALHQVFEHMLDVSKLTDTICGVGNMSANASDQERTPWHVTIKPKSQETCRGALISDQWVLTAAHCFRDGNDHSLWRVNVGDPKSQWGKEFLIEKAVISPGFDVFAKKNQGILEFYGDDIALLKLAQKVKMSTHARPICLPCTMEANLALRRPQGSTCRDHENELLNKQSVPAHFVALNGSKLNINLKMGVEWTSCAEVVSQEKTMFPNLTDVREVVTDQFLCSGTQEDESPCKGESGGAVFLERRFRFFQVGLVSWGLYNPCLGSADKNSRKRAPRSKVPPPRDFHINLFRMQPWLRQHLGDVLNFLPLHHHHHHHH

The next assay addresses T3, human C2 V455A (human, UniProt P06681 21-752).
T3 sequence: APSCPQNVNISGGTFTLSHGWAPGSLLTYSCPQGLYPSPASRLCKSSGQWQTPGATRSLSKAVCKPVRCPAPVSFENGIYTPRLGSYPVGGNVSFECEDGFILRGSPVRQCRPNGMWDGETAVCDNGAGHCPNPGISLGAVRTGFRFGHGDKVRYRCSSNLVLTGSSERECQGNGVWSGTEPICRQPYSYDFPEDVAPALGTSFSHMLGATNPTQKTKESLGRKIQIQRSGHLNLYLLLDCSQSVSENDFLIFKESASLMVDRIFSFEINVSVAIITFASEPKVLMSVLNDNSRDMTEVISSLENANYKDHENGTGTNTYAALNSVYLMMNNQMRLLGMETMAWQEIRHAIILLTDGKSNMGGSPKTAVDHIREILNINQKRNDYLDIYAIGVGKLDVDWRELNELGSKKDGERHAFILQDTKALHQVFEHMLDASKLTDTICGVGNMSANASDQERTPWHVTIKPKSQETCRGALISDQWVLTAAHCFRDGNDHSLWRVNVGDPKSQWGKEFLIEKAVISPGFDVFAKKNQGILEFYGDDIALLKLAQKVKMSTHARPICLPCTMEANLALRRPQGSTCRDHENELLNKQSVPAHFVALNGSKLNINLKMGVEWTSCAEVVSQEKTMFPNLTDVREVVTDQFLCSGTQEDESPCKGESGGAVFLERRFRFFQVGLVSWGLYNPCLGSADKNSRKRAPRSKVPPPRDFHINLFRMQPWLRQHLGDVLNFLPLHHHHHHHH

A further assay addresses T4, human C2 G414A (human, UniProt P06681 21-752).
T4 sequence: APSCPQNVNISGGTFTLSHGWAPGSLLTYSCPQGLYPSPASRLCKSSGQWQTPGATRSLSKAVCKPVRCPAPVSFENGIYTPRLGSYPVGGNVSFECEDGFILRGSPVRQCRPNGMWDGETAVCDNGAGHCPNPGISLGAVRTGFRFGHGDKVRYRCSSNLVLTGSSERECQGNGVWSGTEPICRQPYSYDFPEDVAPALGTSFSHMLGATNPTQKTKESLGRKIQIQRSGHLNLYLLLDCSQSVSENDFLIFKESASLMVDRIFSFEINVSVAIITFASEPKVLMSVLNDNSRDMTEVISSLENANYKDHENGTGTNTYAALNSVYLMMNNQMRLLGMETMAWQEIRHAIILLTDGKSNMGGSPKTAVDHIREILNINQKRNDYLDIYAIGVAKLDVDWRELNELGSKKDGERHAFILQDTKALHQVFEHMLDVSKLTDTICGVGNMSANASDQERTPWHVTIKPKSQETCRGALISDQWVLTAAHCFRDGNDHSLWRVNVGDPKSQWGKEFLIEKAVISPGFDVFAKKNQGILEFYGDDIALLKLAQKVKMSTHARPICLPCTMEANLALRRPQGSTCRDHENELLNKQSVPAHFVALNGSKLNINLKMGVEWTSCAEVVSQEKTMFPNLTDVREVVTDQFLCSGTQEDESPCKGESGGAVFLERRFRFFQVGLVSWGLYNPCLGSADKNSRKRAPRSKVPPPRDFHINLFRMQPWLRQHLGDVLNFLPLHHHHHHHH

For one molecule, Kd results are on record in patent US20220332804A1 (CSL INNOVATION, published 2022).

What is called Kd is the constant that tells how readily two partners part at equilibrium.

B1: RF16-214 (antibody, V domains shown)
VH: EVQLLESGGGLVQPGGSLRLSCAASGFTFSWYQMMWVRQAPGKGLEWVSRIYPSGGGTAYADSVKGRFTISRDNSKNTLYLQMNSLRAEDTAVYYCARDAGYGDNWGQGTLVTVSS
VL: QSALTQPPSVSVSPGQTASITCSGDKLGEKYASWYQQKAGQSPVMVIYQDRKRPSGIPERFSGSNSGNTATLTISGTQAMDEADYYCQAWDTRAVVFGGGTKLTVLG
Consider B1, for which the Kd was found to be 6.9 nM with human C2 V448A, 230 nM with human C2 R434A, 9.8 nM with human C2 V455A and 14.8 nM with human C2 G414A.
